From US7482133B2, “Catalytic domains of β(1,4)-galactosyltransferase I having altered donor and acceptor specificities, domains that promote in vitro protein folding, and methods for their use” (The United States of America as represented by the …, priority 2003, dated 2009)

Experiments:
Format in all cases: biochemical
[1] = GalNAc-T activity in absence and presence of LA, acceptor Glc; conditions: for GalNAc-T activity: acceptor Glc 100 mM, 500 μM UDP-GalNAc, 37° C., 10 minutes
Procedure: (§1) Gal-T and GalNAc-T Enzyme Assays: The protein concentrations were measured using the Bio-Rad protein assay kit, based on the method of Bradford and further verified on SDS gel. […] The activities were measured using UDP-Gal or UDP-GalNAc as sugar nucleotide donors, and GlcNAc and Glc as the acceptor sugars. For the specific activity measurements, a 100-μl incubation mixture containing 50 mM β-benzyl-GlcNAc, 10 mM MnCl2, 10 mM Tris-HCl, pH 8.0, 500 μM UDP-Gal or UDP-GalNAc, 20 ng of Gal-T1, and 0.5 μCl of [^3H]UDP-Gal or [^3H]UDP-GalNAc was used for each Gal-T or GalNAc-T reaction. The incubation was carried out at 37° C. for 10 min. […] The column was washed successfully with 300, 400, and 500 μl of water, and the column flow-through was diluted with Biosafe scintillation fluid; radioactivity was measured with a Beckman counter. A reaction without the acceptor sugar was used as a control. […]

[2] = Two-substrate kinetic constants, Gal-T reaction
Source text: (§2) Studies for Determining the Kinetic Constants: The true Km of the donor (KA) and of the acceptor (KB), the dissociation constant of the donor, Ki(a), and kcat were obtained using two-substrate analyses and the primary plots of five concentrations of donor (UDP-Gal or UDP-GalNAc) and five concentrations of acceptor, and the corresponding secondary plots of the intercepts and slopes. Initial rate conditions were linear with respect to time. A suitable range of donor and acceptor concentrations were chosen, which allowed an accurate Michaelis-Menten plot to be derived. The data were also analyzed for a general two-substrate system using the following equations (Zhang et al., Glycobiology, 9:815-822 (1999)) with the software EnzFitter, a Biosoft nonlinear curve-fitting program for Windows.
(§3) [formula] Here v is the initial velocity and the rate equation for sequential symmetrical initial velocity pattern associated with Equation 1, an ordered or random equilibrium mechanism in which substrate A dissociates well from the E-S complex with a dissociation constant of Ki(a). Equation 2 is for asymmetric initial velocity pattern for a double displacement or “ping-pong” mechanism. The kinetic parameters KA, KB, Ki(a), and Vmax, were obtained from the fitted curves using the above rate equations. The graphical method and EnzFitter program gave very similar kinetic parameters. In the N-acetylgalactosamine transferase (GalNAc-T) assay, the maximum substrate concentrations used for UDP-GalNAc and GlcNAc were 1 and 200 mM, respectively. However, in the galactose transferase (Gal-T) assay, because of the limited solubility of GlcNAc in water, the concentration of GlcNAc was limited to no more than […] (which is 2-fold higher than its Km value), whereas up to 300 μM UDP-Gal were used.

[3] = GlcNAc-T specific activity assay; conditions: donor 500 μM; acceptor β-benzyl-GlcNAc 25 mM
[4] = Two-substrate kinetic constants, GalNAc-T reaction
Source text: as §2, §3

[5] = GalNAc-T activity in absence and presence of LA, acceptor Glucosamine; conditions: acceptor Glucosamine 100 mM, 500 μM UDP-GalNAc, 37° C., 10 minutes
Procedure: as §1

[6] = Gal-T specific activity assay; conditions: donor 500 μM; acceptor β-benzyl-GlcNAc 25 mM (10 mM for C342T); saturating conditions
Procedure: (§4) For example, the galactose and N-acetylgalactosyltransferase activity of β(1,4)-galactosyltransferase I can be determined using the following assay conditions. […], 10 mM MnCl2, 10 mM Tris-HCl (pH 8.0), 500 μM UDP-Gal or UDP-GalNAc, and 20 ng of β(1,4)-galactosyltransferase I can be incubated at 37° C. for 10 minutes to promote coupling of a donor sugar to an acceptor sugar. While these conditions are provided as an example, it is understood that many other conditions may be used to chemically link a donor to an acceptor using the altered catalytic domains of the invention.
(§5) Gal-T and GalNAc-T Enzyme Assays: The protein concentrations were measured using the Bio-Rad protein assay kit, based on the method of Bradford and further verified on SDS gel. […] The activities were measured using UDP-Gal or UDP-GalNAc as sugar nucleotide donors, and GlcNAc and Glc as the acceptor sugars. For the specific activity measurements, […], 10 mM MnCl2, 10 mM Tris-HCl, pH 8.0, 500 μM UDP-Gal or UDP-GalNAc, 20 ng of Gal-T1, and 0.5 μCl of [^3H]UDP-Gal or [^3H]UDP-GalNAc was used for each Gal-T or GalNAc-T reaction. The incubation was carried out at 37° C. for 10 min. […] The column was washed successfully with 300, 400, and 500 μl of water, and the column flow-through was diluted with Biosafe scintillation fluid; radioactivity was measured with a Beckman counter. A reaction without the acceptor sugar was used as a control. A similar assay was carried out to measure the GalNAc-T activity with Glc and other acceptors in the presence of 50 μM bovine LA (Sigma).

[7] = GalNAc-T specific activity assay
Procedure: as §4, §5

[8] = GalNAc-T activity in absence and presence of LA, acceptor GlcNAc; conditions: acceptor GlcNAc 100 mM, 500 μM UDP-GalNAc, 37° C., 10 minutes
Procedure: as §1

[9] = UDP-N-acetylgalactosamine → GlcNAc

B1: Y289L_C342T: bovine Gal-T1 catalytic domain (residues 130-402), Tyr-289 exchanged with Leu, with Cys-342 to Thr mutation (protein)
chain: SLTACPEESPLLVGPMLIEFNIPVDLKLIEQQNPKVKLGGRYTPMDCISPHKVAIIILFRNRQEHLKYWLYYLHPMVQRQQLDYGIYVINQAGESMFNRAKLLNVGFKEALKDYDYNCFVFSDVDLIPMNDHNTYRCFSQPRHISVAMDKFGFSLPYVQLFGGVSALSKQQFLSINGFPNNYWGWGGEDDDIYNRLAFRGMSVSRPNAVIGKTRMIRHSRDKKNEPNPQRFDRIAHTKETMLSDGLNSLTYMVLEVQRYPLYTKITVDIGTPS
In the case of B1, the GalNAc-T activity ([1]; +LA 55 μM) is reported as 34.8 pmol/min/ng, the GalNAc-T activity ([1]; −LA) is reported as 2.6 pmol/min/ng and the “acceptor preference of GalNAc transfer” value ([1]; in the presence of LA) is reported as “transfer GalNAc preferably to Glc rather than to GlcNAc”. For the same molecule, the “catalytic constant (kcat) relative to wild type” value ([2]; Gal-T1 reaction) was “comparable with the wild type”, the “Km for the acceptor relative to wild-type Gal-T1” value ([2]; Gal-T reaction) was about 20 fold and the “KA (true Km of the donor), Gal-T” value ([2]; UDP-galactose → GlcNAc) was 75 (1) μM. For the same molecule, the KB (true Km of the acceptor), Gal-T ([2]; UDP-galactose → GlcNAc) was 198 mM, the Kcat., Gal-T ([2]; UDP-galactose → GlcNAc, unit assumed) was 8.5 s⁻¹ and the “UDP-GlcNAc → GlcNAc GlcNAc-T activity” value [3] was 8.2 pmol/min/ng. The “catalytic constant (kcat), fold higher” value ([4]; GalNAc reaction) was 3-5 fold, the “KA (true Km of the donor), GalNAc-T” value [4, 9] was 854 (8) μM and the “KB (true Km of the acceptor), GalNAc-T” value [4, 9] was 51 (1) mM. For the same molecule, the “Kcat., GalNAc-T” value [4, 9] was 4.0, the GalNAc-T activity ([5]; +LA 55 μM) was 5.0 pmol/min/ng and the GalNAc-T activity ([5]; −LA) was 1.8 pmol/min/ng. For the same molecule, the “UDP-galactose → GlcNAc Gal-T activity” value [6] was 16.2 pmol/min/ng, the “galactose transferase versus N-acetylgalactosyltransferase activity” value ([7]; comparison in words (Table III, FIG. 1)) was “equally strong galactose transferase and N-acetylgalactosyltransferase activities” and the “UDP-GalNAc → GlcNAc GalNAc-T activity” value ([7]; donor 500 μM, acceptor β-benzyl-GlcNAc 25 mM) was 27.3 pmol/min/ng. It also gave a GalNAc-T activity ([8]; +LA 55 μM) of 3.3 pmol/min/ng and a GalNAc-T activity ([8]; −LA) of 31.3 pmol/min/ng.
